± gives the standard deviation of the averaged measurements.
System: ATP
Experiment: switch fluorescence ratio, 500 uM ATP over buffer (Cy3 cluster intensity, sum of 5 cycles each) (fold (ratio)); higher = stronger signal-on switching upon ATP binding; sequences stand for … in TCGTCGGCAGCGTCAGATGTGTATAAGAGACAGTTTTTTTTTTTTTTTTTTTTTTTTT…TC
Details: aptamer strand: ATP DNA aptamer (quencher-CACCTGGGGGAGTATTGCGGAGGAAGG + anchor), 100 nM annealed; ATP concentration: 500 uM
Outline: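 Clusters with intensities outside 100-1000 RFU were excluded. The remaining Cy3-labelled switching-strand clusters on a modified Illumina MiSeq flow-cell had been annealed to 100 nM quencher-labelled ATP aptamer and imaged in selection buffer, then after 15 min with 500 uM ATP at 22 °C, for five cycles separated by NaOH stripping and re-annealing. The fluorescence ratio, averaged per switch-domain sequence, is each cluster's summed target-cycle Cy3 intensity over its summed buffer-cycle Cy3 intensity.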
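Further: ATP exposure 15 min at 22 °C before imaging.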

TTTCGCACTG
switch fluorescence ratio: 1.1 ± 0.018

TTTCGCGGGC
switch fluorescence ratio: 1.94 ± 0.53

TTTCGCGGTT
switch fluorescence ratio: 1.02 ± 0.043

TTTCGCGTGG
switch fluorescence ratio: 0.971 ± 0.028

TTTCGGAGA
switch fluorescence ratio: 1.11 ± 0.17

TTTCGGATGT
switch fluorescence ratio: 0.984 ± 0.04

TTTCGGATTT
switch fluorescence ratio: 0.983 ± 0.012

TTTCGGCCAG
switch fluorescence ratio: 1.13 ± 0.17

TTTCGGCTAT
switch fluorescence ratio: 1.12 ± 0.15

TTTCGGGAAT
switch fluorescence ratio: 1.08 ± 0.11

TTTCGGGCAT
switch fluorescence ratio: 1.19 ± 0.31

TTTCGGGGGT
switch fluorescence ratio: 1.07 ± 0.25

TTTCGGTATT
switch fluorescence ratio: 1.02 ± 0.02

TTTCGGTCGG
switch fluorescence ratio: 1.04 ± 0.046

TTTCGGTTGC
switch fluorescence ratio: 1.07 ± 0.11

TTTCGTATCG
switch fluorescence ratio: 1.01 ± 0.021

TTTCGTATGG
switch fluorescence ratio: 1 ± 0.057

TTTCGTGAAA
switch fluorescence ratio: 0.9975 ± 0.0019

TTTCGTGTGG
switch fluorescence ratio: 1.01 ± 0.086

TTTCGTGTTG
switch fluorescence ratio: 1.01 ± 0.017

TTTCGTGTTT
switch fluorescence ratio: 0.998 ± 0.028

TTTCGTTAAC
switch fluorescence ratio: 1.06 ± 0.028

TTTCTAGACC
switch fluorescence ratio: 1.1 ± 0.12

TTTCTAGGGG
switch fluorescence ratio: 1.01 ± 0.028

TTTCTAGGTT
switch fluorescence ratio: 1 ± 0.041

TTTCTAGTCG
switch fluorescence ratio: 0.971 ± 0.019

TTTCTCATTT
switch fluorescence ratio: 0.972 ± 0.021

TTTCTCGGCT
switch fluorescence ratio: 1 ± 0.035

TTTCTCGTAC
switch fluorescence ratio: 1.11 ± 0.012

TTTCTCTGAT
switch fluorescence ratio: 0.9813 ± 0.0042

TTTCTCTTAG
switch fluorescence ratio: 0.9889 ± 0.0072

TTTCTGAGCT
switch fluorescence ratio: 1.08 ± 0.068

TTTCTGCTTT
switch fluorescence ratio: 1.04 ± 0.057

TTTCTGGCTA
switch fluorescence ratio: 1.08 ± 0.053

TTTCTGGGGA
switch fluorescence ratio: 0.991 ± 0.034

TTTCTGGGGT
switch fluorescence ratio: 1.01 ± 0.054

TTTCTGGGTG
switch fluorescence ratio: 1.13 ± 0.038

TTTCTGGTTT
switch fluorescence ratio: 1 ± 0.016

TTTCTGTAAT
switch fluorescence ratio: 1.05 ± 0.03

TTTCTGTGCT
switch fluorescence ratio: 0.97009 ± 7e-05

TTTCTTCAAA
switch fluorescence ratio: 0.997 ± 0.02

TTTCTTCAGC
switch fluorescence ratio: 1.21 ± 0.19

TTTCTTGCTG
switch fluorescence ratio: 1.07 ± 0.047

TTTCTTGGCG
switch fluorescence ratio: 1 ± 0.03

TTTCTTTTTG
switch fluorescence ratio: 0.99 ± 0.034

TTTGAAAATA
switch fluorescence ratio: 0.962 ± 0.018

TTTGAAAGCT
switch fluorescence ratio: 1.164 ± 0.0067

TTTGAAGTTT
switch fluorescence ratio: 1 ± 0.018

TTTGAATAGG
switch fluorescence ratio: 1.01 ± 0.016

TTTGAATCGG
switch fluorescence ratio: 0.97 ± 0.027

TTTGAATCTT
switch fluorescence ratio: 1 ± 0.02

TTTGAATGCT
switch fluorescence ratio: 0.952 ± 0.046

TTTGAATGTA
switch fluorescence ratio: 1.011 ± 0.0078

TTTGAATTAT
switch fluorescence ratio: 0.975 ± 0.021

TTTGAATTTC
switch fluorescence ratio: 0.988 ± 0.021

TTTGACAGCG
switch fluorescence ratio: 1.02 ± 0.066

TTTGACGACT
switch fluorescence ratio: 1.01 ± 0.025

TTTGACGGTG
switch fluorescence ratio: 1.01 ± 0.034

TTTGACTATG
switch fluorescence ratio: 0.999 ± 0.022

TTTGAGGAGG
switch fluorescence ratio: 0.9876 ± 0.0046

TTTGAGGGTA
switch fluorescence ratio: 1.03 ± 0.1

TTTGAGGTGT
switch fluorescence ratio: 1.03 ± 0.012

TTTGAGTCCG
switch fluorescence ratio: 1.04 ± 0.065

TTTGAGTGAG
switch fluorescence ratio: 0.9892 ± 0.0098

TTTGAGTGAT
switch fluorescence ratio: 1.01 ± 0.057

TTTGAGTGCG
switch fluorescence ratio: 0.973 ± 0.025

TTTGATAAAT
switch fluorescence ratio: 1 ± 0.014

TTTGATAGTT
switch fluorescence ratio: 1.01 ± 0.018

TTTGATATAT
switch fluorescence ratio: 0.972 ± 0.012

TTTGATATTA
switch fluorescence ratio: 0.994 ± 0.026

TTTGATCAGA
switch fluorescence ratio: 1 ± 0.025

TTTGATCGTT
switch fluorescence ratio: 1.01 ± 0.011

TTTGATGGCT
switch fluorescence ratio: 1.02 ± 0.039

TTTGATGTAA
switch fluorescence ratio: 1.01 ± 0.026

TTTGATGTAC
switch fluorescence ratio: 1.05 ± 0.013

TTTGATGTTT
switch fluorescence ratio: 1 ± 0.031

From the supplement of paper PMC10126150
